Experimental data published in patent US20260053892A1, “Induction and Expansion of Regulatory T Cells” (Board of Regents of the University of Nebraska, priority 2022, published 2026).

Legend:
[1] = 3 or 6 μg/kg/day, cited from earlier work
Tregs = assay: Treg profiles by flow cytometry in blood, lymph nodes and spleen of treated mice; format: in vivo, C57BL/6 male mice
Protocol: C57BL/6 male mice (5-6 weeks old) were purchased from Jackson Laboratories (Bar Harbor, ME). […] Following a period of acclimation, mice were injected intraperitoneally (i.p.) with daily GM-CSF (Group 4) (Days 0-4). […] On Day 10, the mice were sacrificed, blood was collected, and spleen and lymph nodes were harvested.
Following treatment, whole blood, lymph nodes and spleens were collected to determine T-cell profiles via flow cytometric analysis. Peripheral blood, lymph nodes, and splenocytes were fluorescently labeled using antibodies against cell surface antigens including CD3, CD4, CD25, CD8, CD19, CD127, ICOS, GITR, CD39, CD62L, CD44, GITR, and CTLA-4, and for the intracellular markers FoxP3 and STAT5. Whole blood, lymph nodes, and splenocytes were labeled with PerCP Cyanine 5.5-anti-CD3 (eBioscience/Thermo Fisher Scientific, Waltham, MA), APC-anti-CD19 (eBiosciences), PE-anti-CD25 (eBiosciences), PE-cyanine7-anti-CD4 (eBiosciences), PerCP-eFluor710-anti-CD39 (eBiosciences), Alexa Fluor™ 488-anti-CD278 (ICOS) (Biolegend, San Diego, CA), FITC-anti-CD127 (Biolegend), FITC-anti-CD44, Alexa Fluor™ 488-anti-CTLA-4, Alexa Flour™ 700-anti-GITR, FITC-anti-CD8, and PerCP Cyanine 5.5-anti-CD62L. Intracellular staining was performed following permeabilization for 45 minutes at 4° C. Cells were labeled with APC-anti-FoxP3 (eBioscience) or anti-STAT5-Pacific Blue. Samples were analyzed with an LSRII flow cytometer and FACSDiva™ Software (BD Biosciences, San Diego, CA).
All values are expressed as mean±SEM using ANOVA (mean±SEM, n=3). *=p≤0.05; **=p≤0.01; *** p≤0.001. Data were analyzed using GraphPad Prism 9.3.1 software (La Jolla, CA).

[2] = in vivo; cited from earlier work

**Q.** Which Treg numbers [1] does the source give for “sargramostim: human recombinant GM-CSF (sargramostim, Leukine®)” here?
**A.** The Treg numbers was “increased”.

**Q.** And the “Unified Parkinson's Disease Rating Scale (UPDRS) scores” value [1]?
**A.** Its value is “modestly improved”.

**Q.** What about the Safety and tolerability ([1]; low doses) of the same molecule?
**A.** Its Safety and tolerability is “safe and well-tolerated”.

B1: granulocyte-macrophage colony-stimulating factor (protein, UniProt P01587 18-141, looked up)
Granulocyte-macrophage …: APTRSPITVTRPWKHVEAIKEALNLLDDMPVTLNEEVEVVSNEFSFKKLTCVQTRLKIFEQGLRGNFTKLKGALNMTASYYQTYCPPTPETDCETQVTTYADFIDSLKTFLTDIPFECKKPGQK
notes: granulocyte-macrophage colony-stimulating factor, immunomodulatory growth factor; 0.1 mg/kg i.p. in mice
**Q.** What does the source list for B1?
**A.** CD4+CD25+FOXP3+ Tregs (Tregs; blood, FIG. 4): did not induce; CD25+CD127− Tregs (Tregs; blood, FIG. 5): did not induce; CD25+ICOS+ Tregs (Tregs; blood, FIG. 7): did not significantly induce; CD4+CD25+ Tregs (Tregs; lymph nodes, FIG. 2): only a mild increase; CD25+GITR+ Tregs (Tregs; lymph nodes, FIG. 9): did not induce; CD4+CD25+FOXP3+ Tregs (Tregs; spleen, FIG. 3): did not induce; CD25+CD127− Tregs (Tregs; spleen, FIG. 6): did not induce; CD25+ICOS+ Tregs (Tregs; spleen, FIG. 8): did not significantly induce; CD25+CD39+ Tregs (Tregs; spleen, FIG. 10): did not induce; CD25+CD62L− Tregs (Tregs; spleen, FIG. 11): did not significantly induce; half-life [2]: six
